B1: SC57.11 (antibody, V domains shown)
VH: QVQLQQSGAELMKPGASVKISCKATGYTFSNYRIEWMKQRPGHGLEWIGEILPRTGNTNYNENFKGKATFTADTSSNTAYIQLSSLTSEDSAVYYCARDDGYYGRFAYWGQGTLVTVSA
VL: DIQMTQTTSSLSASLGDRVTISCRASQDISSYLNWYQQKPDGTVKLLIYYTSRLHSGVPSRFSGSGSGTDYSLTINNLEQEDIATYFCQQGNTLPPTFGGGTKLEIK
B2: hSC57.5 (antibody, human IgG1, kappa, V domains shown)
VH: EVQLVQSGAEVKKPGESLKISCKGSGYSFTDYYLHWVRQMPGKGLEWMGRINPYNGATSYNQIFKDQVTISADKSISTAYLQWSSLKASDTAMYYCARGGDYDFPWYWGQGTTVTVSS
VL: DIQMTQSPSSLSASVGDRVTITCKASQDVYAAVAWYQQKPGKAPKLLIYWASTRHAGVPSRFSGSGSGTDFTLTISSLQPEDFATYYCQQHYRTPWTFGQGTKVEIKR
B3: SC57.5 (antibody, V domains shown)
VH: EVQLQQSGPELVKPGASVKISCKASGYSFTDYYLHWVKQSHVKSLEWIGRINPYNGATSYNQIFKDKASLTVDKSSSTAYMDLHSLTSEDSAVYYCARGGDYDFPWYWGQGTTLTVSP
VL: DIVMTQSHKFMSTSVGDRVSITCKASQDVYAAVAWYHQKPGQSPKLLIYWASTRHAGVPDRFTGSGSGTDYTLTISSVQAEDLALYYCQQHYRTPWTFGGGTKLEIK
B4: SC57.46 (antibody, V domains shown)
VH: QVQLKESGPGLVAPSQSLSITCTVSGFSLTSYGVHWVRQPPGKGLEWLGIIWAGGTTNYNSALMSRLSIRKDNSKSQVFLKMNSLQTDDTAMYYCARDRGYDGYFDYAVDYWGQGTSVTVSS
VL: DIQMTQSPPSLSASVGETVTITCRTSENIYSYLTWYQQKQGKSPQLLVYNAKTLAEGVPSRFSGSGSGTQFSLKINSLQPEDFGSYYCQHHYGTPLTFGAGTKLELK

biological target: hMFI2-ECD-His (extracellular domain of human MFI2, residues G20-C709, with Histidine tag) (human) (UniProt P08582); test: SPR (BIAcore 2000): antibody captured, monomeric MFI2-His flowed, 1:1 Langmuir fit; species not given, taken as hMFI2-His
Sequence (P08582 20-709 limits assumed, form in doubt): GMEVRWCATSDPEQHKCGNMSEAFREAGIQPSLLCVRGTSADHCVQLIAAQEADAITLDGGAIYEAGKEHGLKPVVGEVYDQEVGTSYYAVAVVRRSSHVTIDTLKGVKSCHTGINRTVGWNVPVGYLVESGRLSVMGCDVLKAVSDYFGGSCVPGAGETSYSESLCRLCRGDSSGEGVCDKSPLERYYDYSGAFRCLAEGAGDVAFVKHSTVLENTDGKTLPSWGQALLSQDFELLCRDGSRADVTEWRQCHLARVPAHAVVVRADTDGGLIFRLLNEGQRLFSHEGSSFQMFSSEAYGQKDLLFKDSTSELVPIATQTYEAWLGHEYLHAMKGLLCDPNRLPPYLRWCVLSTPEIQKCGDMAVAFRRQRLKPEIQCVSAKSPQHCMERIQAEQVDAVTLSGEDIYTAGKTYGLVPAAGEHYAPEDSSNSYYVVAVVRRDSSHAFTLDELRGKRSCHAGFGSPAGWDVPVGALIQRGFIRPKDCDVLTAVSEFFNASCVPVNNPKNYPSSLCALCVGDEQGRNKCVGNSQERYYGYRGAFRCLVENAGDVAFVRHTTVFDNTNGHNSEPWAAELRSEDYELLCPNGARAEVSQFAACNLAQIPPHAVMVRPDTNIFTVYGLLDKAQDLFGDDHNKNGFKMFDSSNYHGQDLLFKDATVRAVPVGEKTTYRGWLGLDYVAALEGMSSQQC

B1 and B2 are within 1.5-fold of each other in Kd: 3.2 nM for the first, 4.4 nM for the second.

Compared with B3, B4 is 4.1-fold higher in Kd: 1.1 nM for the first, 4.5 nM for the second. The first binds more tightly here.

From patent US20170320960A1
